Six molecules from patent publication US20230159612A1 (MEDIGENE IMMUNOTHERAPIES, published 2023) can be followed below.

B1: MAGE-A4 TCR-6 (fully human TCR) (TCR)
TCR alpha: GENVEQHPSTLSVQEGDSAVIKCTYSDSASNYFPWYKQELGKRPQLIIDIRSNVGEKKDQRIAVTLNKTAKHFSLHITETQPEDSAVYFCAASRGTGFQKLVFGTGTRLLVSPNIQNPDPAVYQLRDSKSSDKSVCLFTDFDSQTNVSQSKDSDVYITDKTVLDMRSMDFKSNSAVAWSNKSDFACANAFNNSIIPEDTFFPSPESSCDVKLVEKSFETDTNLNFQNLSVIGFRILLLKVAGFNLLMTLRLWSS
TCR beta: DTAVSQTPKYLVTQMGNDKSIKCEQNLGHDTMYWYKQDSKKFLKIMFSYNNKELIINETVPNRFSPKSPDKAHLNLHINSLELGDSAVYFCASSQFWDGAGDEQYFGPGTRLTVTEDLNKVFPPEVAVFEPSEAEISHTQKATLVCLATGFFPDHVELSWWVNGKEVHSGVSTDPQPLKEQPALNDSRYCLSSRLRVSATFWQNPRNHFRCQVQFYGLSENDEWTQDRAKPVTQIVSAEAWGRADCGFTSVSYQQGVLSATILYEILLGKATLYAVLVSALVLMAMVKRKD
notes: no leader limits stated
B2: MAGE-A4 TCR-5 (fully human TCR) (TCR)
TCR alpha: AQKITQTQPGMFVQEKEAVTLDCTYDTSDPSYGLFWYKQPSSGEMIFLIYQGSYDQQNATEGRYSLNFQKARKSANLVISASQLGDSAMYFCAMSGGYTGGFKTIFGAGTRLFVKANIQNPDPAVYQLRDSKSSDKSVCLFTDFDSQTNVSQSKDSDVYITDKTVLDMRSMDFKSNSAVAWSNKSDFACANAFNNSIIPEDTFFPSPESSCDVKLVEKSFETDTNLNFQNLSVIGFRILLLKVAGFNLLMTLRLWSS
TCR beta: DSGVTQTPKHLITATGQRVTLRCSPRSGDLSVYWYQQSLDQGLQFLIQYYNGEERAKGNILERFSAQQFPDLHSELNLSSLELGDSALYFCASSGGDGDEQFFGPGTRLTVLEDLKNVFPPEVAVFEPSEAEISHTQKATLVCLATGFYPDHVELSWWVNGKEVHSGVSTDPQPLKEQPALNDSRYCLSSRLRVSATFWQNPRNHFRCQVQFYGLSENDEWTQDRAKPVTQIVSAEAWGRADCGFTSESYQQGVLSATILYEILLGKATLYAVLVSALVLMAMVKRKDSRG
notes: no leader limits stated
B3: MAGE-A4 TCR-4 (fully human TCR) (TCR)
TCR alpha: AQKITQTQPGMFVQEKEAVTLDCTYDTSDQSYGLFWYKQPSSGEMIFLIYQGSYDEQNATEGRYSLNFQKARKSANLVISASQLGDSAMYFCAMSGDSAGNMLTFGGGTRLMVKPHIQNPDPAVYQLRDSKSSDKSVCLFTDFDSQTNVSQSKDSDVYITDKTVLDMRSMDFKSNSAVAWSNKSDFACANAFNNSIIPEDTFFPSPESSCDVKLVEKSFETDTNLNFQNLSVIGFRILLLKVAGFNLLMTLRLWSS
TCR beta: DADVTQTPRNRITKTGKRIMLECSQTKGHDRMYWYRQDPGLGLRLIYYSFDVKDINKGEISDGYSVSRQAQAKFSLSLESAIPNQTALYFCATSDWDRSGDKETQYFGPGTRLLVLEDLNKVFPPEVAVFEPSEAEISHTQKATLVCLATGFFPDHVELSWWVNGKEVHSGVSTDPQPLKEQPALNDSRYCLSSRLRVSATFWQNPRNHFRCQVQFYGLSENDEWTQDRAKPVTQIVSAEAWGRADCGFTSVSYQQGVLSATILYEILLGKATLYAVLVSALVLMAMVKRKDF
notes: no leader limits stated
B4: TCR-2 containing murinized Cα and Cβ regions (TCR)
TCR alpha: AQKITQTQPGMFVQEKEAVTLDCTYDTSDPSYGLFWYKQPSSGEMIFLIYQGSYDQQNATEGRYSLNFQKARKSANLVISASQLGDSAMYFCAMSGGYTGGFKTIFGAGTRLFVKANIQNPEPAVYQLKDPRSQDSTLCLFTDFDSQINVPKTMESGTFITDKTVLDMKAMDSKSNGAIAWSNQTSFTCQDIFKETNATYPSSDVPCDATLTEKSFETDMNLNFQNLSVMGLRILLLKVAGFNLLMTLRLWSS
TCR beta: DSGVTQTPKHLITATGQRVTLRCSPRSGDLSVYWYQQSLDQGLQFLIQYYNGEERAKGNILERFSAQQFPDLHSELNLSSLELGDSALYFCASSGGDGDEQFFGPGTRLTVLEDLRNVTPPKVTLFEPSKAEIANKQKATLVCLARGFFPDHVELSWWVNGKEVHSGVSTDPQAYKESNYSYCLSSRLRVSATFWHNPRNHFRCQVQFHGLSEEDKWPEGSPKPVTQNISAEAWGRADCGITSASYHQGVLSATILYEILLGKATLYAVLVSGLVLMAMVKKKNS
notes: Expressed on the surface of retrovirally transduced human CD8+ T cells; Human variable regions with murine constant regions; also called MAGE-A4-TCR
B5: TCR-1 containing murinized Cα and Cβ regions (TCR)
TCR alpha: AQKITQTQPGMFVQEKEAVTLDCTYDTSDQSYGLFWYKQPSSGEMIFLIYQGSYDEQNATEGRYSLNFQKARKSANLVISASQLGDSAMYFCAMSGDSAGNMLTFGGGTRLMVKPHIQNPEPAVYQLKDPRSQDSTLCLFTDFDSQINVPKTMESGTFITDKTVLDMKAMDSKSNGAIAWSNQTSFTCQDIFKETNATYPSSDVPCDATLTEKSFETDMNLNFQNLSVMGLRILLLKVAGFNLLMTLRLWSS
TCR beta: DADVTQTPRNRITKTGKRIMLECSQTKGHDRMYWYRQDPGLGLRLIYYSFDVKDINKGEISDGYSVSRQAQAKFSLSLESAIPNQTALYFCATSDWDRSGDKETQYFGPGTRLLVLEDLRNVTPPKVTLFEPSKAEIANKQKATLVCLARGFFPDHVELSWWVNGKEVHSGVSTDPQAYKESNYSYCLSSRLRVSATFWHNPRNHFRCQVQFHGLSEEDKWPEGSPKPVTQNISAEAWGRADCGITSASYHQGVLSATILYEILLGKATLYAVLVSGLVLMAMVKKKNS
notes: as for B4
B6: TCR-3 containing murinized Cα and Cβ regions (TCR)
TCR alpha: GENVEQHPSTLSVQEGDSAVIKCTYSDSASNYFPWYKQELGKRPQLIIDIRSNVGEKKDQRIAVTLNKTAKHFSLHITETQPEDSAVYFCAASRGTGFQKLVFGTGTRLLVSPNIQNPEPAVYQLKDPRSQDSTLCLFTDFDSQINVPKTMESGTFITDKTVLDMKAMDSKSNGAIAWSNQTSFTCQDIFKETNATYPSSDVPCDATLTEKSFETDMNLNFQNLSVMGLRILLLKVAGFNLLMTLRLWSS
TCR beta: DTAVSQTPKYLVTQMGNDKSIKCEQNLGHDTMYWYKQDSKKFLKIMFSYNNKELIINETVPNRFSPKSPDKAHLNLHINSLELGDSAVYFCASSQFWDGAGDEQYFGPGTRLTVTEDLRNVTPPKVTLFEPSKAEIANKQKATLVCLARGFFPDHVELSWWVNGKEVHSGVSTDPQAYKESNYSYCLSSRLRVSATFWHNPRNHFRCQVQFHGLSEEDKWPEGSPKPVTQNISAEAWGRADCGITSASYHQGVLSATILYEILLGKATLYAVLVSGLVLMAMVKKKNS
notes: as for B4

Bounds are passed on as bounds.

One experiment concerns the target T1, MAGE-A4GVY-MHC-multimer (MAGE-A4 230-239, …; immuneAware) (human).
T1 construct: Bought reagent (immuneAware); also called GVY-specific tetramer
In words: flow cytometry, multimer staining of TCR-transduced CD3+ T cells, gated on live CD3+ cells. The source says: After expansion of these cells, they were stained with a MAGE-A4GVY-MHC-multimer and antibody against CD3 and analyzed by flow cytometry. Populations were gated on live CD3+ cells and multimer staining.
After expansion, the transduced T cells were stained with a MAGE-A4GVY-MHC-multimer (MAGE-A4²³⁰⁻²³⁹, […]; immuneAware) and antibodies against CD3. Populations were gated on live CD3⁺ cells and multimer staining. All MAGE-A4-TCR-transgenic T cell populations bound the MAGE-A4GVY-MHC-multimer very efficiently (>70%).
In the case of B1, the “percent of cells stained by the multimer” value was more than 70%.

For the molecule B2, the “percent of cells stained by the multimer” value is more than 70%.

Regarding B3, the “percent of cells stained by the multimer” value is more than 70%.

The target in another experiment is T1, MAGE-A4GVY-MHC-multimer (MAGE-A4 …). In words: flow cytometry, multimer staining of TCR-transduced CD8+ T cells, gated on live CD8+/mCb+ cells. An excerpt: Transduced CD8+ T cells were enriched by FACS using the murine constant beta region as a marker for transduction. After expansion of these cells, they were stained with an MAGE-A4GVY-MHC-multimer and antibodies against CD8 and the murine constant beta region (mmCb) and analyzed by flow cytometry. Populations were gated on live CD8+/mCb+ cells and staining of multimer/CD8 is shown.
They were stained with a MAGE-A4GVY-MHC-multimer (MAGE-A4²³⁰⁻²³⁹, […]; immuneAware) and antibodies against CD8 and the murine constant beta region. All MAGE-A4-TCR-transgenic T cell populations bound the MAGE-A4GVY-MHC-multimer very efficiently (>70%).
Regarding B4, the “percent of cells stained by the multimer” value is more than 70%.

Consider B5, for which the “percent of cells stained by the multimer” value was more than 70%.

In the case of B6, the “percent of cells stained by the multimer” value is more than 70%.
